Data taken from US20250313638A1 (KISOJI BIOTECHNOLOGY, published 2025).
Where two headings read alike, the source gives them in different places.

How the values were obtained:
[1] = biological target: T1, recombinant human CD47 protein (human, UniProt Q08722 19-139); experiment: ELISA: recombinant human CD47 coated on the plate, chemiluminescence
T1 construct: Bought (Cedarlane Cat. No. 12283-H08H-200); also called human recombinant CD47 protein; CD47 recombinant protein

[2] = biological target: T2, recombinant cynomolgus CD47 protein (cynomolgus monkey, UniProt A0A5F8AK49 19-139 (rhesus entry)); experiment: ELISA: recombinant cynomolgus CD47 coated on the plate, chemiluminescence
T2 construct: also called cynomolgus monkey CD47 recombinant protein

[3] = biological target: T3, human PD-1 on CHO-PD1 cells (human, UniProt Q15116 25-288); experiment: flow cytometry on CHO-PD1 cells, APC anti-human-Fc secondary antibody
T3 construct: also called CHO-PD-1 cell line

[4] = biological target: T4, recombinant cynomolgus monkey PD-1 protein (cynomolgus monkey, UniProt B0LAJ3 25-170); experiment: ELISA: recombinant cynomolgus PD-1 coated on the plate, anti-human-Fc-HRP, chemiluminescence
T4 construct: also called cynomolgus monkey recombinant PD1 protein
Description: (§1) Briefly, recombinant proteins were coated on 96-well plates. Plates were covered and left at 4° C. overnight. The next day, plates were washed once with PBS and blocked with blocking buffer for 1 hour at room temperature. Binding agents were tested at the indicated concentration (357 nM starting concentration, followed by 12 one in four serial dilutions for FIG. 9B lower panel), diluted in the blocking buffer, and incubated for 1 hour at 37° C. After incubation, plates were washed three times with washing buffer. Plates were incubated with anti-human-Fc-HRP (Sigma-Aldrich, Cat. No. AP113P) diluted at 1:5000 for 1 hour at room temperature, then washed three times with PBS-T washing buffer. The signal was developed with SuperSignal™ ELISA Pico Chemiluminescent Substrate (Thermofisher, Cat. No. 37069). The plates were read on a SpectraMax™ i3x Multi-Mode Microplate Reader (Molecular Devices).

[5] = biological target: T5, recombinant human PD-1 protein (human, UniProt Q15116 25-167); experiment: ELISA: recombinant human PD-1 coated on the plate, anti-human-Fc-HRP, chemiluminescence
T5 construct: Bought (Cedarlane Cat. No. HPLC-10377-H08H-100); also called human recombinant PD1 protein; PD-1 recombinant protein
Description: as §1

[6] = biological target: T6, human CD47 on cells (HEK293T cells, human blood cells, primary human T cells) (human, UniProt Q08722 19-323); experiment: flow cytometry on primary human T cells
T6 construct: Endogenous CD47 of human cells; For blood cells and T cells it is inferred from the specificity of the anti-CD47 module

BSA = biological target: T7, BSA; experiment: ELISA: BSA coated on the plate, anti-human-Fc-HRP, chemiluminescence
T7 construct: also called control protein (BSA)
Description: as §1

[7] = biological target: T5, recombinant human PD-1 protein; experiment: ELISA: recombinant human PD-1 coated on the plate, anti-human-Fc-HRP, chemiluminescence; remark: listed apart in the source
Description: as §1

[8] = biological target: PD-1 on the Jurkat effector cells of the PD-1/PD-L1 blockade bioassay (UniProt Q15116 25-288, limits assumed); experiment: cell-based or functional assay
[9] = biological target: T8, recombinant rat PD-1 protein (rat, UniProt D3ZIN8 25-169); experiment: ELISA: recombinant rat PD-1 coated on the plate, anti-human-Fc-HRP, chemiluminescence
T8 construct: also called rat recombinant PD1 protein
T8 sequence: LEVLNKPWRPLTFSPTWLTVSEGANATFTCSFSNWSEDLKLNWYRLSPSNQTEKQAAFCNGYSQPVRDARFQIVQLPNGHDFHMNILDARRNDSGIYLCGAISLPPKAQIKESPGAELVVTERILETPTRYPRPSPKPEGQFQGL
Description: as §1

[10] = biological target: T5, recombinant human PD-1 protein; experiment: ELISA: recombinant human PD-1 coated on the plate, anti-human-Fc-HRP, chemiluminescence; remark: listed apart in the source
Description: as §1

T5 sequence (Q15116 25-167 limits assumed): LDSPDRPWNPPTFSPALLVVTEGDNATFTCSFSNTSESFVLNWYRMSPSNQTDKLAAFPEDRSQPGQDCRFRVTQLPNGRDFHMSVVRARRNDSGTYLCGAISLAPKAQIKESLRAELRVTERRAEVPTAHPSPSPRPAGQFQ
T4 sequence (B0LAJ3 entry or part of it limits assumed): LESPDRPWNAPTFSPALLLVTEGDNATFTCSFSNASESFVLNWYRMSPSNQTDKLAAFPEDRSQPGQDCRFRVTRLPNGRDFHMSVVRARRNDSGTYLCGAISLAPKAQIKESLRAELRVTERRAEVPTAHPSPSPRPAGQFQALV
T7 sequence (chain, as listed by the source limits assumed): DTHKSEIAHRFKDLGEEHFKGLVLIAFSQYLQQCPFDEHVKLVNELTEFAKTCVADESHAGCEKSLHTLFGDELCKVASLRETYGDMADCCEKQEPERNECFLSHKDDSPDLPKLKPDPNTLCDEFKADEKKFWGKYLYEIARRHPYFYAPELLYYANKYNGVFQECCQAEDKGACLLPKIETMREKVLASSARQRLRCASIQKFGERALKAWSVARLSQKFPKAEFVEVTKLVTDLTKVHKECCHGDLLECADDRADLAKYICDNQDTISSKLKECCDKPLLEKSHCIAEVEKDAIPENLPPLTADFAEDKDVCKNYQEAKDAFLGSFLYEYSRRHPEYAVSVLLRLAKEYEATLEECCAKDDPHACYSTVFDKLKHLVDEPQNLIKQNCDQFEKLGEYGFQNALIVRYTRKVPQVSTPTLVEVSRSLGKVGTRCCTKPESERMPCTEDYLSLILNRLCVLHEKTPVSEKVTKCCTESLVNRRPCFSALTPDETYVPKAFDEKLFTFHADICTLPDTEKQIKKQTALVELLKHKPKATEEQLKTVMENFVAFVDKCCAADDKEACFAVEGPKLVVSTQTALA
T3 sequence (Q15116 25-288 limits assumed): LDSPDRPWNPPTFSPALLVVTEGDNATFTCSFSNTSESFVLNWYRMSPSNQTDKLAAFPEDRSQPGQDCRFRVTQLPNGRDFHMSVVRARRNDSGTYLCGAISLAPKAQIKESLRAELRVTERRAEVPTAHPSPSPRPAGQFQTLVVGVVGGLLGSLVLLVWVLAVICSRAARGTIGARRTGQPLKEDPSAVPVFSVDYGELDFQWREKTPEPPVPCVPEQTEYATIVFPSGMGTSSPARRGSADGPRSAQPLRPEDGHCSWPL
Sequence of PD-1 on the Jurkat effector cells of the PD-1/PD-L1 blockade bioassay (Q15116 25-288 limits assumed): as above

B1: monoclonal anti-CD47 antibody clone B6H12 (antibody)
chain: EVQLVESGGDLVKPGGSLKLSCAASGFTFSGYGMSWVRQTPDKRLEWVATITSGGTYTYYPDSVKGRFTISRDNAKNTLYLQIDSLKSEDTAIYFCARSLAGNAMDYWGQGTSVTVSSGGGGSGGGGSGGGGSDIVMTQSPATLSVTPGDRVSLSCRASQTISDYLHWYQQKSHESPRLLIKFASQSISGIPSRFSGSGSGSDFTLSINSVEPEDVGVYYCQNGHGFPRTFGGGTKLEIK
- EC50 (read off the curve) [1]: ~0.5 nM
- EC50 (read off the curve) [2]: ~0.1 nM

B2: KC035 (Fc fusion)
chain: QVQLVESGGGSVQAGGSLRLSCAASGSTDSIEYMTWFRQAPGKAREGVAALYTHTGNTYYTDSVKGRFTISQDKAKNMAYLRMDSVKSEDTAIYTCGATRKYVPVRFALDQSSYDYWGQGTQVTVSSEPKSCDKTHTCPPCPAPELLGGPSVFLFPPKPKDTLMISRTPEVTCVVVDVSHEDPEVKFNWYVDGVEVHNAKTKPREEQYNSTYRVVSVLTVLHQDWLNGKEYKCKVSNKALPAPIEKTISKAKGQPREPQVYTLPPSREQMTKNQVSLTCLVKGFYPSDIAVEWESNGQPENNYKTTPPVLNSDGSFFLYSKLTVDKSRWQQGNVFSCSVMHEALHNHYTQESLSLSPGKAPAPAPAPAPKAQVQLVESGGGSVQAGGSLRLSCAASGSTDSIEYMTWFRQAPGKAREGVAALYTHTGNTYYTDSVKGRFTISQDKAKNMAYLRMDSVKSEDTAIYTCGATRKYVPVRFALDQSSYDYWGQGTQVTVSSGGGGSGGGGSGGGGSQVQLVESGGGSVQAGGSLRLSCAASGSTDSIEYMTWFRQAPGKAREGVAALYTHTGNTYYTDSVKGRFTISQDKAKNMAYLRMDSVKSEDTAIYTCGATRKYVPVRFALDQSSYDYWGQGTQVTVSS
notes: Three anti-HEWL VHHs on an Fc; May comprise a His-tag or not; also called negative control
- binding result [3]: no binding
- binding result [4]: no binding (tested: about 700 nM)
- binding result [5]: no binding (tested: about 700 nM)
- binding result [6]: no binding (tested: 350 nM)

B3: KC036 (Fc fusion)
chain: QVQLVESGGGSVQAGGSLRLSCAASGSTDSIEYMTWFRQAPGKAREGVAALYTHTGNTYYTDSVKGRFTISQDKAKNMAYLRMDSVKSEDTAIYTCGATRKYVPVRFALDQSSYDYWGQGTQVTVSSEPKSCDKTHTCPPCPAPELLGGPSVFLFPPKPKDTLMISRTPEVTCVVVDVSHEDPEVKFNWYVDGVEVHNAKTKPREEQYNSTYRVVSVLTVLHQDWLNGKEYKCKVSNKALPAPIEKTISKAKGQPREPQVYTLPPSREQMTKNQVSLTCLVKGFYPSDIAVEWESNGQPENNYKTTPPVLNSDGSFFLYSKLTVDKSRWQQGNVFSCSVMHEALHNHYTQESLSLSPGKAPAPAPAPAPKAQVQLQESGGGWVQPGGSLRLSCVASGFTFSRSSMSWHRQAPGKERDLVAIISSSGIITHYSDSVKGRFTISRDNAKDTVYLQMNSLKPEDTAVYVCNAVLDDDSGDYWGQGTQVTVSSGGGGSGGGGSGGGGSQVQLVESGGGSVQAGGSLRLSCAASGSTDSIEYMTWFRQAPGKAREGVAALYTHTGNTYYTDSVKGRFTISQDKAKNMAYLRMDSVKSEDTAIYTCGATRKYVPVRFALDQSSYDYWGQGTQVTVSS
notes: May comprise a His-tag or not; also called (HEWL)
- binding result (BSA): no binding (tested: about 700 nM)
- EC50 (read off the curve) [4]: ~0.1 nM
- EC50 (read off the curve) [7]: ~0.2 nM
- EC50 (read off the curve), PD-1/PD-L1 blockade NFAT-luciferase reporter [8]: ~2 nM
- EC50 (read off the curve) [9]: ~0.1 nM
- EC50 (read off the curve) [10]: ~0.2 nM
- EC50 (read off the curve) [5]: ~0.1 nM

B4: KC067 (Fc fusion)
chain: QVQLVESGGGSVQAGGSLRLSCAASGSTDSIEYMTWFRQAPGKAREGVAALYTHTGNTYYTDSVKGRFTISQDKAKNMAYLRMDSVKSEDTAIYTCGATRKYVPVRFALDQSSYDYWGQGTQVTVSSEPKSCDKTHTCPPCPAPELLGGPSVFLFPPKPKDTLMISRTPEVTCVVVDVSHEDPEVKFNWYVDGVEVHNAKTKPREEQYNSTYRVVSVLTVLHQDWLNGKEYKCKVSNKALPAPIEKTISKAKGQPREPQVYTLPPSREQMTKNQVSLTCLVKGFYPSDIAVEWESNGQPENNYKTTPPVLNSDGSFFLYSKLTVDKSRWQQGNVFSCSVMHEALHNHYTQESLSLSPGKAPAPAPAPAPKAQVQLQESGGGLVQPGGSLRLSCAASGFTFSNYGMSWVRQAPGEGLEWVSSIDSTGGTTRYADSVKGRFTISRDNAKNALYLQMNSLKPEDTAVYYCAKDFLSWMPRGQGTQVTVSSGGGGSGGGGSGGGGSQVQLVESGGGSVQAGGSLRLSCAASGSTDSIEYMTWFRQAPGKAREGVAALYTHTGNTYYTDSVKGRFTISQDKAKNMAYLRMDSVKSEDTAIYTCGATRKYVPVRFALDQSSYDYWGQGTQVTVSS
notes: the ranges are mine
- EC50 (read off the curve) [10]: ~0.5 nM

B5: KC034 (Fc fusion)
VHH-hinge-CH2-CH3-linker-VHH-linker-VHH polypeptide chain: QVQLVESGGGSVQAGGSLRLSCAASGSTDSIEYMTWFRQAPGKAREGVAALYTHTGNTYYTDSVKGRFTISQDKAKNMAYLRMDSVKSEDTAIYTCGATRKYVPVRFALDQSSYDYWGQGTQVTVSSEPKSCDKTHTCPPCPAPELLGGPSVFLFPPKPKDTLMISRTPEVTCVVVDVSHEDPEVKFNWYVDGVEVHNAKTKPREEQYNSTYRVVSVLTVLHQDWLNGKEYKCKVSNKALPAPIEKTISKAKGQPREPQVYTLPPSREQMTKNQVSLTCLVKGFYPSDIAVEWESNGQPENNYKTTPPVLNSDGSFFLYSKLTVDKSRWQQGNVFSCSVMHEALHNHYTQESLSLSPGKAPAPAPAPAPKAQVQLVESGGGSVQAGGSLRLSCAASGSTDSIEYMTWFRQAPGKAREGVAALYTHTGNTYYTDSVKGRFTISQDKAKNMAYLRMDSVKSEDTAIYTCGATRKYVPVRFALDQSSYDYWGQGTQVTVSSGGGGSGGGGSGGGGSEVQLVESGGGLVQPGGSLRLSCAASGDIYKSFDMGWYRQAPGKQRDLVAVIGSRGNNRGRTNYADSVKGRFTISRDGTGNTVYLLMNKLRPEDTAIYYCNTAPLVAGRPWGRGTLVTVSS
notes: also called (HEWL)
- binding result [6]: no binding (tested: 350 nM)
